Measurements taken from publication PMC7654431.

Molecular target: T7 DNA polymerase gp5;thioredoxin (trx) (bacteriophage T7;Escherichia coli, UniProt P00581;P0AA25 1-704;2-109, |)
Experiment: SEC-SAXS-MALS

T7 DNA polymerase gp5;thioredoxin (trx), sequence (P00581 whole entry, chain 1 of 2): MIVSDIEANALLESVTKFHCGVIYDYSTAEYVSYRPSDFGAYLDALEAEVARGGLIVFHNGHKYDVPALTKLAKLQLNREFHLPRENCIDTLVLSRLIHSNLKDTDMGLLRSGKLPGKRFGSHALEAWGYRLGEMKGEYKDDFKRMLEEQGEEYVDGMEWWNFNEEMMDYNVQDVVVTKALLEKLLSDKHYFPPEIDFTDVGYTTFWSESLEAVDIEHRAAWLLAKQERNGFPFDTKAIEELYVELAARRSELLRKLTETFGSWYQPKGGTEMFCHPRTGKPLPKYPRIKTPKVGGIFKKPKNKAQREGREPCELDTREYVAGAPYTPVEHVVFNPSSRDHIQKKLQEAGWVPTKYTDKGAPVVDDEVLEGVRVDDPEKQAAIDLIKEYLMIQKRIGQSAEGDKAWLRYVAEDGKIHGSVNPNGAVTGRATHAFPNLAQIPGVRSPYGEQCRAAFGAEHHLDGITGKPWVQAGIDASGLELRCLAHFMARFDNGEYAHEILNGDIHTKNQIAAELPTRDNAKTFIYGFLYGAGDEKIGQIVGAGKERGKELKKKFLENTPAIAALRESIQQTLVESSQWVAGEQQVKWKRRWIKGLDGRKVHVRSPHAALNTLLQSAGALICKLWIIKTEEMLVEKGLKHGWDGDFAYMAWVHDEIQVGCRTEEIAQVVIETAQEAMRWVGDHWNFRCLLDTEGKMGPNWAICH
T7 DNA polymerase gp5;thioredoxin (trx), sequence (P0AA25 2-109, chain 2 of 2): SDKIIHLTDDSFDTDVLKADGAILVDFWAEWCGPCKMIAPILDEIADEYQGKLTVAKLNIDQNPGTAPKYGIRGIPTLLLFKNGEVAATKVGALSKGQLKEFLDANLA

B1: SAXS primer/template (dsDNA)
DNA 1: TGGCAGGCAGGTGGTCTTGCCGGTC
DNA 2: GATCCCTCGACCGGCAAGACCACCTGCCTGCCA
modifications: 3'-terminal ddC on primer
B1: binds.
